# According to the RNAGym collection of RNA variant scans (doi:10.1073/pnas.2313332121):
# Fewer inactive variants are shown than the library holds.
# B1: TPR 5TU (parent)
# chain: GGAUCUUCUCGAUCUAACAAAAAAGACAAAUCUGCCACAAAGCUUGAGAGCAUCUUCGGAUGCAGAGGCGGCAGCCUUCGGUGGCGCGAUAGCGCCAACGUUCUCAACUAUGACACGCAAAACGCGUGCUCCGUUGAAUGGAGUUUAUCAUG
# Variants of: B1
# Test: polymerase ribozyme fitness, log enrichment relative to wild type (log ratio); higher = more active; in vitro selection for triplet polymerase activity
# Outline: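 Genotype fitness is the logarithm of its enrichment divided by wild-type enrichment, using inverse-variance-weighted averages of replicates. That logarithm is base 2. Enrichment was measured by Illumina sequencing of input and output libraries from one triplicate in vitro selection round, with frozen incubation at −7 °C, on PCR-built, transcribed mutant libraries of each subunit of a heterodimeric triplet polymerase ribozyme, retaining genotypes with ≥10 input reads and ≥1 read per output.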
row,Variant,polymerase ribozyme fitness (log ratio)
1,U53A G117A,-0.303
2,C54A G58A G94A A98U,-0.552
3,U53G A119C A122C G141U,-0.69
4,U53G U77G C129A A147C,≤ -4.2
5,C54U C93U U144C U146G,-3.87
6,U53G C118U,-1.68
7,C54U C85A C96U A97C A98G A121U,≤ -4.2
8,C54A U61A C69U C125A,≤ -4.2
9,U53G A115C G143A,-4.06
10,U53G U135C,-3.23
11,U53G G71C G86A G143U,≤ -4.2
12,C54U C85U C129U,-0.134
13,U53G C87G G133U,≤ -4.2
14,C54U A115G,-3.13
15,C54U C85G,-2.49
16,C54U C85A,-2.3
17,C54A G81C,-0.408
18,U53A U101G C125A,-0.788
19,C54G G80U,-3.52
20,U53A U55G,-3.97
21,C54A U61G,-1.82
22,C54G C57U C75A A97U G141C U145G,≤ -4.2
23,C54U C96U U144G,0.217
24,C54A G88C,-3.99

row,Variant,polymerase ribozyme fitness (log ratio)
1,C54A G67A G70C C72G A73C G74A C75G C87G C116G,≤ -4.2
2,C54A U55C C79A G86C C103G A147C,≤ -4.2
3,U53C G84A C95U,-0.536
4,U53G U55A C79U G86A G88A C103U U148C,≤ -4.2
5,C54U C87G,≤ -4.2
6,C54U C87U,-1.08
7,C54G C75U C95U A147C,-3.31
8,C54A U148C,-3.69
9,C54G A91G,-4.01
10,C54G A91U,≤ -4.2
11,C54G C95U U127G,≤ -4.2
12,C54A G141A,-0.156
13,C54G C96G G126A,-2.33
14,C54U G68C C69G G71U G140A U144G,≤ -4.2
15,U53G G84A,-2.52
16,C54U A60U C87U G94U U101G U109C C116U C118U G152C,≤ -4.2
17,C54A C76G A89U G92U U130G C149A U151A,≤ -4.2
18,C54U G71U C85A C96G G133C U145G G152A,≤ -4.2
19,C54A C79U C93A A113U U127G,≤ -4.2
20,C54A U55A A60U,-1.37
21,C54G A60G G81A C93G C118U,≤ -4.2
22,U53G G92U G143U U144A,-3.84
23,C54G U101G C118U,-2.4
24,C54A G94U G140A,≤ -4.2

row,Variant,polymerase ribozyme fitness (log ratio)
1,C54G G94A C108A C125U,≤ -4.2
2,U53C A73G G84A U109G G140C,≤ -4.2
3,C54U G84A C105A,-0.565
4,U53A U78C U90G C96G,≤ -4.2
5,U53C G94C A98C U148G,≤ -4.2
6,U53C G74A C76G C96U A110U,≤ -4.2
7,U53A G143C,-2.05
8,C54A A66G A91G C95G G141A G143U U146C,≤ -4.2
9,C54G A64G A106U A107C U148A,≤ -4.2
10,C54U C76U C85G,-1.18
11,U53G G58C U82G A138C U151A,≤ -4.2
12,C54A A106C,-2.06
13,C54U A64C U90G U139G G140A,≤ -4.2
14,C54U C57U G83C,-1.34
15,C54U G86U,-1.78
16,C54U G86A,-1.18
17,C54A C79A G100A,≤ -4.2
18,C54U A64G G68A U77C G83A G88U U90G C132U U139G,≤ -4.2
19,C54G C95G G133A,≤ -4.2
20,C54U C95G A98G,-2.01
21,C54G G59U U135C A138U,≤ -4.2
22,C54U A64U G83A C85A,≤ -4.2
23,U53A U109G,-0.777
24,C54U G74C,-3.95

row,Variant,polymerase ribozyme fitness (log ratio)
1,C54U A150G,-0.995
2,C54U G58C,-0.858
3,C54U G58A,0.498
4,U53C U77C,≤ -4.2
5,C54U G81A C95U,-0.559
6,C54A U55G G58U G81C C85A,-2.41
7,C54G U56A C96G U102C G136A U144G,-3.08
8,U53G G80C,-4.15
9,C54G C85A,-3.85
10,C54U A121U,0.0158
11,C54G A142U,-1.98
12,U53G C96U C114U A120C A147U,-3.11
13,C54A C96G,-1.71
14,U53G C57A C85U A115U A121C,-2.93
15,U53A U55A G83U C123A G128U A147U,≤ -4.2
16,C54A C57G,-3
17,C54U A97C,-0.294
18,C54A C99A G141U,-2.47
19,C54G U61C G84U C87U G88A A119U,≤ -4.2
20,U53A G141U,0.504
21,C54A G58A A91U C95A,≤ -4.2
22,U53G C93A C95A A97U A98C G100U U130G G140U,≤ -4.2
23,C54U A91U,≤ -4.2
24,C54U A91C,≤ -4.2

row,Variant,polymerase ribozyme fitness (log ratio)
1,C54A U101A,-2.39
2,C54U G80A,-0.56
3,U53A U55G C57A,0.733
4,C54U C96A C105G G124U,-3.42
5,C54A U55A C57A,0.336
6,C54U G59C A97U,-0.658
7,C54A G59U A91G U135A,-3.95
8,C54G A97U A106C,-2.99
9,C54A A89U G92C A121U,-3
10,C54A C96G C103U C116A G136U,-4.12
11,U53C C69U C75A C93U A115C,≤ -4.2
12,C54A U61A G67A C75A G80U C96A,≤ -4.2
13,C54A U56A C93U A120G G126U,-2.38
14,U53A U56A G58A C85U,0.824
15,C54G U102C U144A,-3.91
16,U53A U56A G152A,-4
17,C54A A91G,-3.97
18,C54A A91U,≤ -4.2
19,U53A U148G,-4.01
20,C54U C63A C149U,-1.67
21,U53G U55A U148C,≤ -4.2
22,C54G G80C G81A C85U C129A U135C,≤ -4.2
23,U53A U56A G70U C93U G141C,≤ -4.2
24,U53G G94C A115U,-3.49

row,Variant,polymerase ribozyme fitness (log ratio)
1,C54G G80U C103A,≤ -4.2
2,C54G C114U G143C,-4.16
3,C54A U78G U101G A107G C118A U130A,≤ -4.2
4,C54G G67A U77C C87A C99U U130G,≤ -4.2
5,C54G C76A A89C A98U A115U U151A,≤ -4.2
6,U53A G143A U146C,-2.83
7,C54A C96G C105U U144C,-2.85
8,C54U C99G U101G A142U,-3.57
9,C54G C116U,-1.08
10,C54A U127C,-2.28
11,U53C G86U C96A U146A,-2.73
12,C54U C96A C105U,0.0167
13,C54A G94C A138C,≤ -4.2
14,C54A C105U A121G,-0.876
15,C54U C57G G84U C96A,-3.23
16,C54A C125U,-3.73
17,U53G A110G G117A U148A,≤ -4.2
18,C54A C93G U135G,≤ -4.2
19,C54G G140A U146A,≤ -4.2
20,C54G C87G C103A C129G C132U,≤ -4.2
21,U53A U135A,-1.55
22,U53A G100U,-3.41
23,C54G G94U C123U G133C,-2.38
24,U53C C57G C125U G143A,-3.67

row,Variant,polymerase ribozyme fitness (log ratio)
1,C54A A150G,-3.37
2,C54A U56A G68U U82G G83C G133C,≤ -4.2
3,C54U C95G,-1.07
4,C54U C95U,-0.851
5,C54U A89G C95A U148G,-4.18
6,U53G A97U,-2.68
7,U53G A97C,-1.81
8,C54U C87G C93U C125A G133A A142C,≤ -4.2
9,C54U G58C C85A,-2.42
10,U53G C87U A113U C116A G140U,≤ -4.2
11,C54A G80A C103G A110U A120U C132G,≤ -4.2
12,C54G C96U A98G,-1.19
13,C54U C93G U145A,≤ -4.2
14,C54U C57A C75U A91G,-3.62
15,C54A G92U U135G,-4.08
16,C54U A110C C114U A121U,-4.15
17,C54U A106G,-0.0717
18,C54G C95U,-2.35
19,C54G C95A,-1.74
20,C54A G65C C93G,≤ -4.2
21,C54A C149G,-3.71
22,C54U C75G G80C U82A C87U C99G,≤ -4.2
23,U53A U146G,-2.38
